Measured values: patent US20250270343A1 (Alector, published 2025)
Residue numbers refer to the chain shown, from its start.

T1: soluble mouse GPNMB (recombinant extracellular domain) (mouse, UniProt Q99P91 23-502)
T1 construct: also called moGPNMB; not shown: C-terminal polyhistidine or Avi-His tag
T1 sequence: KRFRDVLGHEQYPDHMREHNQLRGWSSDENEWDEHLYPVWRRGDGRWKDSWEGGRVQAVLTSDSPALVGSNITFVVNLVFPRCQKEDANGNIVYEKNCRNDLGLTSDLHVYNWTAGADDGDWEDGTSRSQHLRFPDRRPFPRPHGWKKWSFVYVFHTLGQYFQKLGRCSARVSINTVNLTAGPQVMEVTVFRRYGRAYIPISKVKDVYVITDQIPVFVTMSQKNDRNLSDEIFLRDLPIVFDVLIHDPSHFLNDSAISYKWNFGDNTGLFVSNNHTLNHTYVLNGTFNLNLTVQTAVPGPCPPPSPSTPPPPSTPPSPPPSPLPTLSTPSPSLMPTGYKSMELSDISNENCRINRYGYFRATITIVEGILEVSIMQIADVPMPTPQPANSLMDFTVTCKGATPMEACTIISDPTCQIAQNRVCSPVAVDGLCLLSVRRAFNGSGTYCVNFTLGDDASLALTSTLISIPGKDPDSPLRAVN

T2: soluble cynomolgus GPNMB (recombinant extracellular domain) (cynomolgus, UniProt Q14956 23-499 (human entry), limits assumed)
T2 chain: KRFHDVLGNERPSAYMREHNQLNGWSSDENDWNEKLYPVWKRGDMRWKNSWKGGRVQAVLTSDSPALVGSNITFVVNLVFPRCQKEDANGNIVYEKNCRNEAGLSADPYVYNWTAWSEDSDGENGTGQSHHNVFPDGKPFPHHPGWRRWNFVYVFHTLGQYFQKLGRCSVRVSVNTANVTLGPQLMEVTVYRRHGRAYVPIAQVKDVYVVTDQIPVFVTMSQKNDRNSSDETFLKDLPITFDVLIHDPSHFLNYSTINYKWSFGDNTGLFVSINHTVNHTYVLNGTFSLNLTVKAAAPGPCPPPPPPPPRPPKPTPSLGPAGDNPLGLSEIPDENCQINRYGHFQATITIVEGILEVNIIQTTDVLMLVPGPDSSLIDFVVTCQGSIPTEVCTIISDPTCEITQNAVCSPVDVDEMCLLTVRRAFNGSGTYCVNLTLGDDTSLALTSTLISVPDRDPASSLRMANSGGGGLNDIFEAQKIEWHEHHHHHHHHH

T3: soluble human GPNMB (recombinant extracellular domain) (human, UniProt Q14956 23-498)
T3 construct: also called huGPNMB; recombinant human GPNMB extracellular domain; not shown: C-terminal polyhistidine or Avi-His tag
T3 sequence: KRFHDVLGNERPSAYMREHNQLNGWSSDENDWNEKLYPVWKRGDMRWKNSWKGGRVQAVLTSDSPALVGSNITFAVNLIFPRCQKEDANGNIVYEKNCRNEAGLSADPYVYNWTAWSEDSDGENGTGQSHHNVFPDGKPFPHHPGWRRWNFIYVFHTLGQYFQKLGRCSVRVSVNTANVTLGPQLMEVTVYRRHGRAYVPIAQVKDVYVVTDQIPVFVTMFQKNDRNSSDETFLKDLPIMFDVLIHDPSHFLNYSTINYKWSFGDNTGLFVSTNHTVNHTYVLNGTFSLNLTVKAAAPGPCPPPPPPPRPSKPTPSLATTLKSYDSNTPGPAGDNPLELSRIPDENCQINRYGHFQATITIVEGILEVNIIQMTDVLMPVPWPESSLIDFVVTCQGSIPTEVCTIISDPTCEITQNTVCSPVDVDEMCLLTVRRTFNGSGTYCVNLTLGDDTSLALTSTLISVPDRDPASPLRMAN

B1: anti-GPNMB antibody GPN-35 (antibody, human IgG1, V domains shown)
VH: EVQLVESGGGSVRPGRSLKLSCAAAGFTFSDYYMTWVRQAPTKGLEWVASINHDGGGTYYRDSVKGRFTISRDNARSSLYLQMDSLRSEDTGTYYCTTRAGWHWGQGVMVTVSS
VL: DIQMTQSPASLSASLGETVSIECLASEDIYNYLTWYQQKPGKSPQVLIYSASGLQDGVPSRFSGSGSGRQYSLKINGLESEDAATYFCLQDSEYPLTFGSGTKLEIK
notes: chimeric
B2: anti-GPNMB antibody GPN-41 (antibody, human IgG1, V domains shown)
VH: QLQLQQSGTEVVKPGASVKIPCKASGYAFSSYWMNWVKQRPGKGLEWIGQIYPGDGDTNDNGKFEGKATLTVDKSSNTAYIQLSSLTSEDSAVYFCARSPLHLRGSMDYWGQGTSVTVSS
VL: SIVMTQTPKFLLVSAGDRVTITCKASQSVSNDVAWFQQKPGQSPELLIYSASNRYTGVPDRFTASGYGTDFTFTISAVQAEDLAVYFCQQNYYSPFTFGGGTRLEIK
notes: chimeric
B3: anti-GPNMB antibody GPN-65 (antibody, human IgG1, V domains shown)
VH: B2 VH
VL: B2 VL with A64G, A77T
notes: chimeric
B4: anti-GPNMB antibody GPN-83 (antibody, V domains shown)
VH: QVQLQESGPGLVKPSETLSLTCTVSGISITTGNYRWSWIRQPPGKGLEWIGYIDYSGTITYNPSLKSRVTITRDTSKNQFSLELSSVTAADTAVYYCARDLTHWYFDVWGQGTLVTVSS
VL: DIVMTQSPDSLAVSLGERATINCKSSRSVDYYGIGFVNWYQQKPGQPPKLLIYATSIQGSGVPDRFSGSGSGTDFTLTISSLQAEDVAVYYCQQQKEVPPTFGGGTKVEIK
B5: anti-GPNMB antibody GPN-86 (antibody, V domains shown)
VH: B4 VH
VL: B4 VL with V37L, I57K
B6: anti-GPNMB antibody GPN-89 (antibody, V domains shown)
VH: B4 VH with F106Y
VL: B4 VL with V37L, I57H
B7: anti-GPNMB antibody GPN-87 (antibody, V domains shown)
VH: B4 VH with F106Y
VL: B4 VL with V37L, I57K
B8: anti-GPNMB antibody GPN-84 (antibody, V domains shown)
VH: B4 VH with F106Y
VL: B4 VL
B9: anti-GPNMB antibody GPN-91 (antibody, V domains shown)
VH: B4 VH
VL: B4 VL with V37L, I57H, V98R
B10: anti-GPNMB antibody GPN-88 (antibody, V domains shown)
VH: B4 VH
VL: B4 VL with V37L, I57H, E97H
B11: anti-GPNMB antibody GPN-90 (antibody, V domains shown)
VH: B4 VH with S67Q
VL: B4 VL with V37L, I57H
B12: anti-GPNMB antibody GPN-85 (antibody, V domains shown)
VH: B4 VH with S67Q
VL: B4 VL with Y32F, V37L, I57H
B13: anti-GPNMB antibody GPN-38 (antibody, human IgG1, V domains shown)
VH: QVQLQQPGAELVRPGTSVRLSCKASGYTFTSYWIHWVKQRPGRGLEWIGVIDPSDSYTNYNQQFNVKATLTVDTSSSAAYMQLSSLTSEDSAVYYCARGLITAVNWYFDVWGTGTTVTVSS
VL: DIQMTQSPASLSTSVGEIVTITCRASENIYSYLTWYQQKQGKSPQLLVYNAKTLAEGVPSRFSGSGSGTQFSLKINSLQPEDFGTYYCQHHYGTPLTFGSGTKLEIK
notes: chimeric
B14: anti-GPNMB antibody GPN-52 (antibody, human IgG1, V domains shown)
VH: DVQLQESGPGLVKPSQTVFLTCTVTGISITTGNYRWSWIRQFPGNKLEWIGYIYYSGTITYNPSLTSRITITRDTPKNEFFLEMNSLTAEDTATYYCARDLTHWYFDVWGTGTTVTVSS
VL: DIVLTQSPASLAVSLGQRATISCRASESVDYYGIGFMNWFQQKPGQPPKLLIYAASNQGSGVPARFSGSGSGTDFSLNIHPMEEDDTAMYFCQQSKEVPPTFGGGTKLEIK
notes: chimeric
B15: anti-GPNMB antibody GPN-61 (antibody, human IgG1, V domains shown)
VH: B14 VH with I69T, E79Q, N85S, Y96F, T102R
VL: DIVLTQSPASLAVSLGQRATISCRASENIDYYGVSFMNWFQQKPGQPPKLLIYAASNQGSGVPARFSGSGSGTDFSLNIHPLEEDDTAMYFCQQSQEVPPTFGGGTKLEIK
notes: chimeric

Legend:
[1] = target: T1, soluble mouse GPNMB (recombinant …); assay: SPR Carterra, Ab immobilized
Procedure, shortened: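 Antibodies amine-coupled on HC200M chip in a 96-spot array; recombinant GPNMB ECD analytes injected at 2.5–600 nM, lowest to highest, without regeneration. Running buffer HBS-EP+ with 0.5 mg/ml BSA; two buffer blanks between species series. Kinetics fitted to yield affinity estimates.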

[2] = target: T2, soluble cynomolgus GPNMB (recombinant …); assay: SPR Biacore, IgG captured
Procedure: (§1) Binding kinetics of the humanized and affinity matured anti-GPNMB antibodies described above were evaluated using the Biacore T200 (Cytiva). Briefly, IgGs were diluted to 10 μg/mL and captured using a Protein A/G (ThermioFisher, #21186) surface on a CM5 chip that was prepared by amine coupling according to the instrument manufacturer's recommendations. The captured antibodies were tested for their ability to bind human, cynomolgus monkey, and mouse GPNMB recombinant proteins as follows.
(§2) Human, cynomolgus, and mouse GPNMB analytes were diluted in running buffer (HBS-EP+, Teknova, #8022, with 0.5 mg/ml BSA, MP Biomedicals LLC, #820451), to a concentration of 300 nM, then diluted 3-fold serially to 100 nM, 33 nM, and 11 nM. Each sample was injected for 2 minutes to allow association, followed by dissociation in buffer alone for 10 minutes. Each sample injection was followed by the regeneration of the chip with three 30-second injections of 10 mM glycine, pH 1.7. Fresh antibody was captured at the beginning of each cycle.
(§3) Data were analyzed using Biacore evaluation software to generate kinetic constants. The equilibrium dissociation constants (KD) were calculated from the fitted association and dissociation rate constants (k-on and k-off) for each of the anti-GPNMB antibodies.

[3] = target: T3, soluble human GPNMB (recombinant …); assay: SPR Biacore, IgG captured
Procedure: as §1, §2, §3

[4] = target: T1, soluble mouse GPNMB (recombinant …); assay: SPR Biacore, IgG captured
Procedure: as §1, §2, §3

| Binder | Kd [1] [nM] | koff [1] [s⁻¹] | kon [1] [M⁻¹ s⁻¹] | Kd [2] [nM] | koff [2] [s⁻¹] | kon [2] [M⁻¹ s⁻¹] | Kd [3] [nM] | koff [3] [s⁻¹] | kon [3] [M⁻¹ s⁻¹] | Kd [4] [nM] | koff [4] [s⁻¹] | kon [4] [M⁻¹ s⁻¹] |
| --- | --- | --- | --- | --- | --- | --- | --- | --- | --- | --- | --- | --- |
| B1 | 2.1 | 0.00012 | 56000 |  |  |  |  |  |  |  |  |  |
| B2 | 0.4 | 3.7e-05 | 97000 |  |  |  |  |  |  |  |  |  |
| B3 | 0.5 | 5.1e-05 | 100000 |  |  |  |  |  |  |  |  |  |
| B4 |  |  |  | 8.1 | 0.0014 | 170000 | 7.5 | 0.0016 | 210000 | 1.5 | 0.00024 | 160000 |
| B5 |  |  |  | 5.5 | 0.0011 | 190000 | 4.5 | 0.0012 | 260000 | 1.2 | 0.00023 | 190000 |
| B6 |  |  |  | 3.3 | 0.00055 | 170000 | 2.9 | 0.00057 | 200000 | 0.8 | 0.00012 | 160000 |
| B7 |  |  |  | 6.2 | 0.0012 | 190000 | 5.4 | 0.0013 | 250000 | 1.5 | 0.00028 | 190000 |
| B8 |  |  |  | 10.3 | 0.0019 | 180000 | 9.6 | 0.0021 | 220000 | 2.1 | 0.00034 | 160000 |
| B9 |  |  |  | 3.6 | 0.00052 | 150000 | 3 | 0.00053 | 180000 | 1.1 | 0.00014 | 140000 |
| B10 |  |  |  | 3.7 | 0.00061 | 160000 | 3.1 | 0.00063 | 200000 | 1.1 | 0.00017 | 150000 |
| B11 |  |  |  | 3.2 | 0.00051 | 160000 | 2.8 | 0.00053 | 190000 | 0.7 | 0.00011 | 160000 |
| B12 |  |  |  | 1.4 | 0.00021 | 150000 | 1 | 0.00018 | 170000 | 0.5 | 7.4e-05 | 140000 |
| B13 | 3.45 | 7.8e-05 | 23000 |  |  |  |  |  |  |  |  |  |
| B14 | 4.6 | 0.00082 | 190000 |  |  |  |  |  |  |  |  |  |
| B15 | 2.1 | 0.00029 | 130000 |  |  |  |  |  |  |  |  |  |
